According to publication PMC7231451:

Tests used:
[1] = target: Complement C3 (purified, native) (UniProt P01024); test: flow cytometry on coated beads
[2] = target: Complement C3 (purified, native) (UniProt P01024); test: pull-down
[3] = target: associated or linker proteins (plasma proteins of the approximately 320 kDa complex); test: SEC

| Substance | fluorescence intensity of binding (h-AAT vs r-AAT) [1] [AU] | Western blot densitometry of bound AAT (C3-coated beads vs control beads) [2] [AU] | percent of AAT in the complex [3] [%] |
| --- | --- | --- | --- |
| plasma purified human AAT (natural protein) | 1.5 | 2.7 |  |
| Alpha-1 antitrypsin (from UniProt P01009 25-418) (natural protein) |  |  | 13 |
